Test results taken from patent publication US20080063657A1 (VAXINNATE, published 2008).

Target: TLR5 (UniProt O60602 21-858)
Experiment: cell-based or functional assay

Sequence of TLR5 (O60602 21-858 limits assumed): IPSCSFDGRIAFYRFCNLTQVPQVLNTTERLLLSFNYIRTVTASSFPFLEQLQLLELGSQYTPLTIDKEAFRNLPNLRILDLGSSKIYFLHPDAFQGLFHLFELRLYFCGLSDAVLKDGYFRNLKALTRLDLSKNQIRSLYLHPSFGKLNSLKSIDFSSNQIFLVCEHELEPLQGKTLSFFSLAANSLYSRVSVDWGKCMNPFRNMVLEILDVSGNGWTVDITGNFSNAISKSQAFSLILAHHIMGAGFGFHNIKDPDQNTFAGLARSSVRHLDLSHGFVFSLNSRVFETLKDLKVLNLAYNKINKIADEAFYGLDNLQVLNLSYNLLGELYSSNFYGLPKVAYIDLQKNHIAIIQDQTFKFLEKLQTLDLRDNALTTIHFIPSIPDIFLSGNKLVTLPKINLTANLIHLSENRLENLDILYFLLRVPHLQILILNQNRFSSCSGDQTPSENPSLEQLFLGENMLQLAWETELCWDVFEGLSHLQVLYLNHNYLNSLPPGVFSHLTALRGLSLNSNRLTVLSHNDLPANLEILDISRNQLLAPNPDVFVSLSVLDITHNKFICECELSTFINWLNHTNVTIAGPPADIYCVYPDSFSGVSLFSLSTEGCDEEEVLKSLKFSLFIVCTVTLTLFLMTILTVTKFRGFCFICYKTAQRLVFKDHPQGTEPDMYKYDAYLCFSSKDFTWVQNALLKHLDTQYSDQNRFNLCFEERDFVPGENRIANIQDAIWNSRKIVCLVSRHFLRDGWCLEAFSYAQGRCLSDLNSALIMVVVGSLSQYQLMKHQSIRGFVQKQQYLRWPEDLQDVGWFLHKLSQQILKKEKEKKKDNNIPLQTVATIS

B1: STF2.EIII+ fusion protein (other)
chain: MAQVINTNSLSLLTQNNLNKSQSALGTAIERLSSGLRINSAKDDAAGQAIANRFTANIKGLTQASRNANDGISIAQTTEGALNEINNNLQRVRELAVQSANSTNSQSDLDSIQAEITQRLNEIDRVSGQTQFNGVKVLAQDNTLTIQVGANDGETIDIDLKQINSQTLGLDSLNVQKAYDVKDTAVTTKAYANNGTTLDVSGLDDAAIKAATGGTNGTASVTGGAVKFDADNNKYFVTIGGFTGADAAKNGDYEVNVATDGTVTLAAGATKTTMPAGATTKTEVQELKDTPAVVSADAKNALIAGGVDATDANGAELVKMSYTDKNGKTIEGGYALKAGDKYYAADYDEATGAIKAKTTSYTAADGTTKTAANQLGGVDGKTEVVTIDGKTYNASKAAGHDFKAQPELAEAAAKTTENPLQKIDAALAQVDALRSDLGAVQNRFNSAITNLGNTVNNLSEARSRIEDSDYATEVSNMSRAQILQQAGTSVLAQANQVPQNVLSLLRKGNSKLEGQLEFPRTSMEKLQLKGTTYGVCSKAFKFLGTPADTGHGTVVLELQYTGTDGPCKVPISSVASLNDLTPVGRLVTVNPFVSVATANAKVLIELEPPFGDSYIVVGRGEQQINHHWHKSGSSIGK
For B1, the “TLR-5 EC50 (IL-8 in supernatant of HEK293 cells, ELISA), batch 052” value was over 5 µg/mL, the “TLR-5 EC50 (IL-8 in supernatant of HEK293 cells, ELISA), batch 054” value was 1.2 µg/mL and the “TLR-5 EC50 (IL-8 in supernatant of HEK293 cells, ELISA), batch 057” value was 0.198 µg/mL.
